Test results reported in patent publication CN112851807A (BLOOD DISEASES HOSPITAL CHINESE ACADEMY OF MEDICAL SCIENCES …, dated 2021).
Numbering of substitutions follows the chain as printed.

B1: 抗CD123单克隆抗体8D7 (antibody, IgG1, V domains shown)
VH: EVQLQESGPGLVKPSQSLSLTCTVTGYSITNDYTWNWIRQFPGNKLEWMGYISFSGITSHNPSLNSRISITRDTSKNQFFLQLNSVTTEDTATYYCTRGVDFWGQGTSVTVSA
VL: DIVLTQSPATLSVTPGDSVSLSCWASQSISNSLHWYQQKSHESPRLLIKFASQSISGIPSRFSGSGSGTDFTLSIDSVETEDFGMYFCQQGHTWPHTFGAGTKLELKR
notes: Purified from ascites; also called CGMCC 18849
B2: 抗CD123单克隆抗体12H7 (antibody, IgG1, V domains shown)
VH: QVKLQESGPGLVKPSQSLSLTCTVTGYSITSDFAWNWVRQFPGDKLEWMGYISYSGGTNYHPSLKDRISITRDTSKNQVFLQLNSVTTEDTATYYCARGGMITPYFAYWGQGTLVTVSA
VL: DVVVTQTPLSLPVSFGDQVSISCRSSQSLANSYGNTFLSWYLHKPGQSPQLLIYGISNRFSGVPDRFSGSGSGTDFTLKISTIKPEDLGIYYCLQGTHQPWTFGGGTKLEIKR
notes: Purified from ascites; also called CGMCC 18847
B3: 抗CD123单克隆抗体6E11 (antibody, IgG1, V domains shown)
VH: QVQLQESGPGLVKPSQSLSLTCTVTGYSITNDFAWNWIRQFPGNKLEWMGYISFSGSTSYNPSLKGRISITRDTSKNQFFLQLNSVTTEDTATYSCARGGMITPYFSYWGQGTLVTVSA
VL: B2 VL with Q18S, K44R, T82S, I90V
notes: Purified from ascites; also called CGMCC 18848

Each binder was assayed against T1, 人CD123蛋白 (白细胞介素3受体α链) (human, UniProt P26951 19-378) (assay: flow cytometry, PE-labelled antibody titrated on CD123-transfected 3T3 cells, fitted in GraphPad Prism 5).
T1 construct: whole, on cells; also called IL-3Rα; 3T3/CD123+
T1 sequence (P26951 19-378): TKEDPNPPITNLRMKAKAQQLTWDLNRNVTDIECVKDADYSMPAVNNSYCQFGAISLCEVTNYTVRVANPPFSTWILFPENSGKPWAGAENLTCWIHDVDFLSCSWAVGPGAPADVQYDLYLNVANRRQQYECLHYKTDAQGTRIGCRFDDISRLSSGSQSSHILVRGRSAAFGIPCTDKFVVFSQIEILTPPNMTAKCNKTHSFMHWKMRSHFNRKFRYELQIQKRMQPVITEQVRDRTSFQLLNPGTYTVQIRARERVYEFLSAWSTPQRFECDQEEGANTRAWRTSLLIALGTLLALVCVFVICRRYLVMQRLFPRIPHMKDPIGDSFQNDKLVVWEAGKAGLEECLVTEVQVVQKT

Kd [nM] | Binder
2.01 | B1
2.09 | B2
2.1 | B3
